Laboratory results as given in patent US20100174053A1 (published 2010).

Experiments:
[1] = target: T1, sCD32B-Ig (UniProt P31994 43-217); test: sandwich ELISA: sCD32B-Ig coated, diabody, sCD16A-Biotin probe, streptavidin-HRP
T1 construct: extracellular domain; not shown: Ig part of sCD32B-Ig; not described
T1 sequence (looked up): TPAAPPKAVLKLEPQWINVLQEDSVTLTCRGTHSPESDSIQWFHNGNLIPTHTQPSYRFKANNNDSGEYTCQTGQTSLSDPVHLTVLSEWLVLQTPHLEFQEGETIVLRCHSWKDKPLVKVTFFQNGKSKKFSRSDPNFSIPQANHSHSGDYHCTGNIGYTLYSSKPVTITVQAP
Experimental: The plate was then incubated at room temperature for 1 hour.

[2] = target: T2, soluble CD16A (sCD16A) (human, UniProt P08637 17-208, biotin or HRP conjugate where used as the ELISA probe); test: SPR (BIAcore), receptor immobilised, diabody 6.25-200 nM as analyte, bivalent analyte fit
T2 construct: extracellular domain; Printed only as soluble CD16A; also called hCD16A; hCD16
Experimental: Diabodies were injected at concentrations of 6.25-200 nM over receptor surfaces at a flow rate of […] for 180 sec.
(§1) sCD16A, sCD32B or sCD32A (negative control) were immobilized on one of the four flow cells (flow cell 2) of a sensor chip surface through amine coupling chemistry (by modification of carboxymethyl groups with mixture of NHS/EDC) such that about 1000 response units (RU) of either receptor was immobilized on the surface. Following this, the unreacted active esters were “capped off” with an injection of 1M Et-NH2.

[3] = target: T3, soluble CD32B (sCD32B) (human, UniProt P31994 43-217, biotin where used as the ELISA probe); test: SPR (BIAcore), receptor immobilised
T3 construct: extracellular domain; also called soluble CD32B ectodomain; sCD32B-biotin
T3 sequence (looked up): T1 sequence (looked up)
Experimental: (§2) (A) Binding to sCD16; (B) Binding to sCD32B and (C) Binding to sCD32A. Diabodies were injected at a concentration of 100 NM, and scFv at a concentration of 200 nM, over receptor surfaces at a flow rate of […] for 60 sec.
as §1

[4] = target: T4, sCD32A (UniProt P12318 34-217, limits assumed); test: SPR (BIAcore), receptor immobilised
T4 construct: extracellular domain; Negative control surface in SPR; also called control receptor
T4 sequence (looked up): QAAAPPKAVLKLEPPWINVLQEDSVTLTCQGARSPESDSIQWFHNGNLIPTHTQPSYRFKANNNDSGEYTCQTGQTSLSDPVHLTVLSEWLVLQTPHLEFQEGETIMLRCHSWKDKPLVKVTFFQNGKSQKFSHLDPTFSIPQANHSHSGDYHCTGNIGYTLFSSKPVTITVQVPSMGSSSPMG
Experimental: as §2, §1

T2 sequence (P08637 17-208): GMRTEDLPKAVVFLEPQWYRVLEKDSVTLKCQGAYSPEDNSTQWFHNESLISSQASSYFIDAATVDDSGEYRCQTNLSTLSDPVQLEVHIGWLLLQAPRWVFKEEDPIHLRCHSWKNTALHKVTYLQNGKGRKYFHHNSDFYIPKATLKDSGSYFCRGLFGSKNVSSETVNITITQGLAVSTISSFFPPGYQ

B1: h3G8 covalent monospecific diabody (CMD) (other)
chain: DIVMTQSPDSLAVSLGERATINCKASQSVDFDGDSFMNWYQQKPGQPPKLLIYTTSNLESGVPDRFSGSGSGTDFTLTISSLQAEDVAVYYCQQSNEDPYTFGQGTKLEIKGGGSGGGGQVTLRESGPALVKPTQTLTLTCTFSGFSLSTSGMGVGWIRQPPGKALEWLAHIWWDDDKRYNPALKSRLTISKDTSKNQVVLTMTNMDPVDTATYYCAQINPAWFAYWGQGTLVTVSSLGGC
notes: Covalent homodimer of construct 3; also called h3G8 CMD; h3G8 diabody
[1]
  binding result: no binding (tested: 0.5 µg/ml to 0.001 µg/ml)
[2]
  Kd: 18 nM
[3]
  binding result: no binding (tested: 100 nM)
[4]
  binding result: no binding (tested: 100 nM)
